Measurements taken from paper PMC3159454.
Residue numbers refer to the chain shown, from its start.

What was measured:
[1] = target: PU.1-ets (HA-tagged ETS domain) (UniProt P17947 170-253); experiment: EMSA
[2] = target: T1, Elk-ΔA (UniProt P19419 1-253); experiment: EMSA
T1 sequence: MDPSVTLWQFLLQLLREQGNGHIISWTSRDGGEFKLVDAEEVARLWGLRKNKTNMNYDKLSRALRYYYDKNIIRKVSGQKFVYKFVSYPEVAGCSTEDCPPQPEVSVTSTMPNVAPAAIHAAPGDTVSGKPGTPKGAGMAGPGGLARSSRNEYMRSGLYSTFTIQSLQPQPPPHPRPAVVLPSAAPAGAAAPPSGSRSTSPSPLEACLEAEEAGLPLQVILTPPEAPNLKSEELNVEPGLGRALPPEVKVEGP

[3] = target: T2, Elk-ets (HA-tagged ETS domain) (UniProt P19419 5-86); experiment: EMSA
T2 sequence: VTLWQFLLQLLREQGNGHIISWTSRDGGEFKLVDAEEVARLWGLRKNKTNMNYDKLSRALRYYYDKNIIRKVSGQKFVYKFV

[4] = target: T3, ets-DM (HA-Elk-ets DNA-binding mutant) (UniProt P19419 5-86, R65A;Y66F); experiment: native gel EMSA
T3 sequence: T2 sequence with R61A, Y62F

[5] = target: T2, Elk-ets (HA-tagged ETS domain); experiment: native gel EMSA

B1: E74 duplex (dsDNA)
DNA 1: CTAGAGCTGAATAACCGGAAGTAACTCAT
DNA 2: CTAGATGAGTTACTTCCGGTTATTCAGCT
Q: Does B1 bind [1]?
A: binds

Q: Does B1 bind [2]?
A: binds

Q: Does B1 bind [3]?
A: binds

Q: Does B1 bind [4]?
A: no binding

B2: CON control duplex (dsDNA)
DNA 1: AGACCAACATGAATTACGACAGGCTCAGCCGGG
DNA 2: CCCGGCTGAGCCTGTCGTAATTCATGTTGGTCT
Q: Does B2 bind [5]?
A: no binding
